Each block holds one binder with its values, some of them ahead of it.
Legend:
Core_NINN-es_KKEE = molecular target: T1, Core_NINN-es_KKEE; assay: two-hybrid library CCmax; conditions: mean of both orientations;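 note: natural log of median RNA to DNA barcode read ratio; higher means stronger binding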
T1 chain: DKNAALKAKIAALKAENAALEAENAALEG

Core_IINN-es_KKEK = molecular target: T2, Core_IINN-es_KKEK; assay: two-hybrid library CCmax; conditions: mean of both orientations;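 note: natural log of median RNA to DNA barcode read ratio; higher means stronger binding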
T2 chain: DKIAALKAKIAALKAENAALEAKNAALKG

Core_NNNN-es_KEKK = molecular target: T3, Core_NNNN-es_KEKK; assay: two-hybrid library CCmax; conditions: mean of both orientations;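 note: natural log of median RNA to DNA barcode read ratio; higher means stronger binding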
T3 chain: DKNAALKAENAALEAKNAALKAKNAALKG

P2-AA-1HGe-A = molecular target: T4, P2-AA-1HGe-A; assay: two-hybrid library CCmax; conditions: mean of both orientations;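 note: natural log of median RNA to DNA barcode read ratio; higher means stronger binding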
T4 chain: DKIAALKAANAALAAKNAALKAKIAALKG

P2-AA-1HGe-S = molecular target: T5, P2-AA-1HGe-S; assay: two-hybrid library CCmax; conditions: mean of both orientations;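 note: natural log of median RNA to DNA barcode read ratio; higher means stronger binding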
T5 chain: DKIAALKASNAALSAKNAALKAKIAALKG

P2-AA = molecular target: T6, P2-AA; assay: two-hybrid library CCmax; conditions: mean of both orientations;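 note: natural log of median RNA to DNA barcode read ratio; higher means stronger binding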
T6 chain: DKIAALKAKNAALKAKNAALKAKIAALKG

P2-AA-1HGe-T = molecular target: T7, P2-AA-1HGe-T; assay: two-hybrid library CCmax; conditions: mean of both orientations
T7 chain: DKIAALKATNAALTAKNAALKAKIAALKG

P2-AA-1HGe-M = molecular target: T8, P2-AA-1HGe-M; assay: two-hybrid library CCmax; conditions: mean of both orientations
T8 chain: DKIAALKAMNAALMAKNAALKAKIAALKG

P2-AA-1HGe-Q = molecular target: T9, P2-AA-1HGe-Q; assay: two-hybrid library CCmax; conditions: mean of both orientations
T9 chain: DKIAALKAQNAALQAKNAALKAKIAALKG

P2-AA-1HGe-D = molecular target: T10, P2-AA-1HGe-D; assay: two-hybrid library CCmax; conditions: mean of both orientations
T10 chain: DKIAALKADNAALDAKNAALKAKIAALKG

Core_NNNI-es_KEKK = molecular target: T11, Core_NNNI-es_KEKK; assay: two-hybrid library CCmax; conditions: mean of both orientations
T11 chain: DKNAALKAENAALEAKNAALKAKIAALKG

O15 = molecular target: T12, O15; assay: two-hybrid library CC0; conditions: mean of both orientations
T12 chain: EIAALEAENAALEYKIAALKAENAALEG

O8 = molecular target: T13, O8; assay: two-hybrid library CC0; conditions: mean of both orientations
T13 chain: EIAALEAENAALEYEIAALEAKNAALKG

O9 = molecular target: T14, O9; assay: two-hybrid library CC0; conditions: mean of both orientations
T14 chain: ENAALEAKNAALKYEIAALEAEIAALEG

O3 = molecular target: T15, O3; assay: two-hybrid library CC0; conditions: mean of both orientations
T15 chain: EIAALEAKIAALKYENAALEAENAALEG

O1 = molecular target: T16, O1; assay: two-hybrid library CC0; conditions: mean of both orientations
T16 chain: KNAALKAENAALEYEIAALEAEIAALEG

O6 = molecular target: T17, O6; assay: two-hybrid library CC0; conditions: mean of both orientations
T17 chain: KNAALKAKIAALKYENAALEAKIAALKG

O5 = molecular target: T18, O5; assay: two-hybrid library CC0; conditions: mean of both orientations
T18 chain: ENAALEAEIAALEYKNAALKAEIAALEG

O13 = molecular target: T19, O13; assay: two-hybrid library CC0; conditions: mean of both orientations
T19 chain: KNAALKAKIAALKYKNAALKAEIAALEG

O4 = molecular target: T20, O4; assay: two-hybrid library CC0; conditions: mean of both orientations
T20 chain: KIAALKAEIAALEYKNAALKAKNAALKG

O11 = molecular target: T21, O11; assay: two-hybrid library CC0; conditions: mean of both orientations
T21 chain: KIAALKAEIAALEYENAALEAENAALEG

O14 = molecular target: T22, O14; assay: two-hybrid library CC0; conditions: mean of both orientations
T22 chain: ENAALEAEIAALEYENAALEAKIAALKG

O2 = molecular target: T23, O2; assay: two-hybrid library CC0; conditions: mean of both orientations
T23 chain: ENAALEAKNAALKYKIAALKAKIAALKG

O10 = molecular target: T24, O10; assay: two-hybrid library CC0; conditions: mean of both orientations
T24 chain: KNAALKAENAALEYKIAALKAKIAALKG

O16 = molecular target: T25, O16; assay: two-hybrid library CC0; conditions: mean of both orientations
T25 chain: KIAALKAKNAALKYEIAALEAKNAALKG

O7 = molecular target: T26, O7; assay: two-hybrid library CC0; conditions: mean of both orientations
T26 chain: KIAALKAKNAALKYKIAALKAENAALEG

O12 = molecular target: T27, O12; assay: two-hybrid library CC0; conditions: mean of both orientations
T27 chain: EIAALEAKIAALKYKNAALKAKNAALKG

Core_NINN-es_KEEK = molecular target: T28, Core_NINN-es_KEEK; assay: two-hybrid library CCmax; conditions: mean of both orientations
T28 chain: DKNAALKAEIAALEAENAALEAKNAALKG

Core_NNNI-es_KEEE = molecular target: T29, Core_NNNI-es_KEEE; assay: two-hybrid library CCmax; conditions: mean of both orientations
T29 chain: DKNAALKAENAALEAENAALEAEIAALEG

Core_NIIN-es_KEEK = molecular target: T30, Core_NIIN-es_KEEK; assay: two-hybrid library CCmax; conditions: mean of both orientations
T30 chain: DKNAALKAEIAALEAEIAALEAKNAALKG

4H2608-AA = molecular target: T31, 4H2608-AA; assay: two-hybrid library CCmax
T31 chain: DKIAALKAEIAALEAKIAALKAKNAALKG

4H3922-AA = molecular target: T32, 4H3922-AA; assay: two-hybrid library CCmax; conditions: mean of both orientations
T32 chain: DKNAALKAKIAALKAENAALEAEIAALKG

4H3605-AA = molecular target: T33, 4H3605-AA; assay: two-hybrid library CCmax; conditions: mean of both orientations
T33 chain: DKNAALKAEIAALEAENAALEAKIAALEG

4H2935-AA = molecular target: T34, 4H2935-AA; assay: two-hybrid library CCmax; conditions: mean of both orientations
T34 chain: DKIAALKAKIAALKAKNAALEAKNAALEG

4H2614-AA = molecular target: T35, 4H2614-AA; assay: two-hybrid library CCmax; conditions: mean of both orientations
T35 chain: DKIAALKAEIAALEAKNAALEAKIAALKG

Core_IIIN-es_EKEE = molecular target: T36, Core_IIIN-es_EKEE; assay: two-hybrid library CCmax; conditions: mean of both orientations
T36 chain: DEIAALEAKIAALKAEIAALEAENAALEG

4H55-AA = molecular target: T37, 4H55-AA; assay: two-hybrid library CCmax; conditions: mean of both orientations
T37 chain: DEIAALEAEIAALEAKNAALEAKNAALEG

4H327-AA = molecular target: T38, 4H327-AA; assay: two-hybrid library CCmax; conditions: mean of both orientations
T38 chain: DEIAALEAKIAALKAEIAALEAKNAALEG

4H369-AA = molecular target: T39, 4H369-AA; assay: two-hybrid library CCmax
T39 chain: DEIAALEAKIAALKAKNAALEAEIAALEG

4H2726-AA = molecular target: T40, 4H2726-AA; assay: two-hybrid library CCmax; conditions: mean of both orientations
T40 chain: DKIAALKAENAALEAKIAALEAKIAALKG

4H662-AA = molecular target: T41, 4H662-AA; assay: two-hybrid library CCmax; conditions: mean of both orientations
T41 chain: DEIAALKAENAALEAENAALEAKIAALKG

4H481-AA = molecular target: T42, 4H481-AA; assay: two-hybrid library CCmax; conditions: mean of both orientations
T42 chain: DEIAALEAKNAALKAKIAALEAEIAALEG

4H4033-AA = molecular target: T43, 4H4033-AA; assay: two-hybrid library CCmax; conditions: mean of both orientations
T43 chain: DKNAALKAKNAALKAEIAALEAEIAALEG

4H3664-AA = molecular target: T44, 4H3664-AA; assay: two-hybrid library CCmax; conditions: mean of both orientations
T44 chain: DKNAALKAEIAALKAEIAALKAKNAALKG

4H3625-AA = molecular target: T45, 4H3625-AA; assay: two-hybrid library CCmax; conditions: mean of both orientations
T45 chain: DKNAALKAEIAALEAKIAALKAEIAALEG

4H2944-bA = molecular target: T46, 4H2944-bA; assay: two-hybrid library CCNG1
T46 chain: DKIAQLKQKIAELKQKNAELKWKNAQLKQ

4H2883-bA = molecular target: T47, 4H2883-bA; assay: two-hybrid library CCNG1
T47 chain: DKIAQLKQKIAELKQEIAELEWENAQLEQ

4H2696-bA = molecular target: T48, 4H2696-bA; assay: two-hybrid library CCNG1
T48 chain: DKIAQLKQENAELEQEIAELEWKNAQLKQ

4H342-bA = molecular target: T49, 4H342-bA; assay: two-hybrid library CCNG1
T49 chain: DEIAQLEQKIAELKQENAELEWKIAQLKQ

4H491-bA = molecular target: T50, 4H491-bA; assay: two-hybrid library CCNG1
T50 chain: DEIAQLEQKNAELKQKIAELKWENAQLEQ

4H19-bA = molecular target: T51, 4H19-bA; assay: two-hybrid library CCNG1
T51 chain: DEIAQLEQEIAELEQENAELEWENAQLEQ

4H48-bA = molecular target: T52, 4H48-bA; assay: two-hybrid library CCNG1
T52 chain: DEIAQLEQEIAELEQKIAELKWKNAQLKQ

4H2937-bA = molecular target: T53, 4H2937-bA; assay: two-hybrid library CCNG1
T53 chain: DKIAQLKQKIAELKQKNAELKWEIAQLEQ

Core_NNNN-es_KKEK = molecular target: T54, Core_NNNN-es_KKEK; assay: two-hybrid library CCmax; conditions: mean of both orientations
T54 chain: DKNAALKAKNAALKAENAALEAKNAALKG

P6SC2R [1] = molecular target: T55, P6SC2R; assay: two-hybrid library CCmax
T55 chain: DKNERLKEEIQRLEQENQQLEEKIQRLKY

P6SC2R [2] = molecular target: T55, P6SC2R; assay: two-hybrid library CCNG1
Core_NNIN-es_KEEK = molecular target: T56, Core_NNIN-es_KEEK; assay: two-hybrid library CCmax; conditions: mean of both orientations
T56 chain: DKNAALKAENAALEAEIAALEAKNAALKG

- interaction score (Core_NINN-es_KKEE): 1.6
Binder: DENAALEAEIAALEAKNAALKAKNAALKG [Core_NINN-es_EEKK]

- interaction score (Core_IINN-es_KKEK): 2.21
Binder: DEIAALEAEIAALEAKNAALKAENAALEG [Core_IINN-es_EEKE]

- interaction score (Core_NNNN-es_KEKK): 0.346
Binder: DENAALEAKNAALKAENAALEAENAALEG [Core_NNNN-es_EKEE]

- interaction score (Core_NINN-es_KEEK): 1.86
Binder: DENAALEAKIAALKAKNAALKAENAALEG [Core_NINN-es_EKKE]

- interaction score (Core_NIIN-es_KEEK): 2.22
Binder: DENAALEAKIAALKAKIAALKAENAALEG [Core_NIIN-es_EKKE]

- interaction score (P6SC2R [1]): 1.06
- interaction score (P6SC2R [2]): 1.2
Binder: DENSQLEEKISQLKQKNSRLKEEIQRLEY [P5SC1Q]

- interaction score (Core_NNIN-es_KEEK): 1.39
Binder: DENAALEAKNAALKAKIAALKAENAALEG [Core_NNIN-es_EKKE]

Further lines, the binder ahead of its results:

Binder: DEIAALEAANAALAAENAALEAEIAALEG [P1-AA-1HGe-A]
- interaction score (P2-AA-1HGe-A): 1.85
- interaction score (P2-AA-1HGe-S): 2.24
- interaction score (P2-AA): 1.57
- interaction score (P2-AA-1HGe-T): 1.54
- interaction score (P2-AA-1HGe-M): 2.12
- interaction score (P2-AA-1HGe-Q): 1.88
- interaction score (P2-AA-1HGe-D): 1.82

Binder: DENAALEAKNAALKAENAALEAEIAALEG [Core_NNNI-es_EKEE]
- interaction score (Core_NNNI-es_KEKK): 2.11

Binder: KNAALKAENAALEYEIAALEAEIAALEG [O1]
- interaction score (O15): -2.7
- interaction score (O8): -2.67
- interaction score (O9): -2.49
- interaction score (O3): -2.76
- interaction score (O1): -2.74
- interaction score (O6): -2.76
- interaction score (O5): -2.77
- interaction score (O13): -2.57
- interaction score (O4): -2.68
- interaction score (O11): -2.7
- interaction score (O14): -2.71
- interaction score (O2): 1.37
- interaction score (O10): -0.97
- interaction score (O16): -2.65
- interaction score (O7): -2.69
- interaction score (O12): -2.64

Binder: DENAALEAKNAALKAKNAALKAKIAALKG [Core_NNNI-es_EKKK]
- interaction score (Core_NNNI-es_KEEE): 1.91

Binder: DKIAALKAEIAALEAKIAALKAKNAALKG [4H2608-AA]
- interaction score (4H2608-AA): -0.193
- interaction score (4H3922-AA): -1.39
- interaction score (4H3605-AA): -0.648
- interaction score (4H2935-AA): -0.712
- interaction score (4H2614-AA): -0.644
- interaction score (Core_IIIN-es_EKEE): 1.53
- interaction score (4H55-AA): -0.255
- interaction score (4H327-AA): 1.83
- interaction score (4H369-AA): 0.124
- interaction score (4H2726-AA): -0.998
- interaction score (4H662-AA): -1.55
- interaction score (4H481-AA): 1.33
- interaction score (4H4033-AA): -0.845
- interaction score (4H3664-AA): -0.787
- interaction score (4H3625-AA): 1.92

Binder: DEIAQLEQEIAELEQENAELEWENAQLEQ [4H19-bA]
- interaction score (4H2944-bA): 2.54
- interaction score (4H2883-bA): -0.0858
- interaction score (4H2696-bA): -1.13
- interaction score (4H342-bA): -0.577
- interaction score (4H491-bA): -1.22
- interaction score (4H19-bA): -0.446
- interaction score (4H48-bA): -0.828
- interaction score (4H2937-bA): 1.86

Binder: DENAALEAENAALEAKNAALKAENAALEG [Core_NNNN-es_EEKE]
- interaction score (Core_NNNN-es_KKEK): 0.00657
